Laboratory results from patent publication US9969998B2, “Compositions of adenosine deaminase-2 (ADA2), variants thereof and methods of using same” (Halozyme, Inc., priority 2014, dated 2018).

Key:
[1] = Thermal stability by differential scanning fluorimetry (DSF); assay type: physicochemical; conditions: 0.1-1 mg/mL protein
Experimental: The stability of the rHuADA2 WT and variants was measured by differential scanning fluorimetry (DSF) at increasing temperatures. DSF measures conformational stability, which correlates with thermal stability. The melting temperature (Tm) in DSF is defined as the midpoint of the protein unfolding transition.
Non-PEGylated WT rHuADA2, non-PEGylated rHuADA2 variants, and PEGylated forms of WT rHuADA2 and rHuADA2 variants were prepared at concentrations of 0.1-1 mg/mL and mixed with the ROX™ protein thermal shift dye (Applied Biosystems, Carlsbad, Calif.; Cat. No. 4461146) to a final dye concentration that corresponds to a 125-fold dilution of the stock ROX™ solution. Protein samples were then loaded into 96-well plate at a volume of 20 μL/well in triplicate. A ViiA7 RT-PCR System (Applied Biosystems, Carlsbad, Calif.) was used to measure the shift in fluorescence as the temperature of the samples were increased. The reactions were subjected to the following steps: incubation at 25° C. for 2 min; ramping of temperature from 25 to 99° C. at a rate of 0.05° C. per second; followed by a 99° C. incubation for 2 min. The wavelengths used for emission and excitation were 623 nanometers (nm) and 580 nm, respectively.

[2] = Spectrophotometric adenosine deaminase assay at varying pH (pH optimum); assay type: biochemical
Experimental: Adenosine deaminase activity of rHuADA2 and variants at varying pH were assessed to determine the pH optimum of each. The adenosine deaminase activity was determined spectrophotometrically by direct measurement of changes in adenosine absorbance. […] During the deamination reaction, the absorbance of ADO decreases while that of INO increases with time. Since the dynamic changes in absorbance make it difficult to monitor activity at a single wavelength, the relative ADO activity was determined as a ratio of the ADO peak to isobestic point (i.e. the wavelength where ADO and INO have the same extinction coefficient). The isobestic point, which is 253 nm, remains unchanged and is concentration independent, so that it is the reference point to correct for volume or intensity discrepancies.
To construct the standard curve for ADO and INO, a series of solution mixtures in 0.001% Tween-20 containing different concentrations of ADO and INO were prepared. The total concentration of ADO and INO mix was 50 μM, in 1×PBS (10 mM phosphate, 137 mM NaCl, 2.7 mM KCl), pH 7.4. The samples were scanned with the wavelengths between 220 nm and 300 nm to determine the isosbestic point, where all spectra cross.
For performing the spectrophotometric adenosine deaminase assay of ADA2 and variants, a 2× solution containing 10 mM ADO in 100 mM potassium phosphate buffer (KPB), 0.1% Tween-20 at different pHs (i.e. 5.5, 6, 6.5, 6.75, 7, 7.25, 7.4, 7.75 and 8) were prepared. A separate 2× solution containing 2 μg/mL WT rHuADA2 or variants were prepared in the same 100 mM potassium phosphate buffer (KPB), 0.1% Tween-20 at the respective pH (i.e. 5.5, 6, 6.5, 6.75, 7, 7.25, 7.4, 7.75 and 8). An equal volume of the ADO solution and the ADA2 solution (wildtype or variants) were mixed to initiate reaction. At each time point (i.e. 1, 3, 5, 7, 9, 11, 13 and 15 min), a small aliquot (4 μl) was removed and diluted 50 times by adding to 196 μl 1×PBS, pH 7.4. The diluted samples were further diluted 2 fold (in duplicates) by adding 85 μl samples to 85 μl 1×PBS in a UV-transparent half area plate. The absorbance at 253 nm and 261 nm were measured of each diluted sample.
Adenosine concentration was determined using the A261/A253 ratio and the standard curve. Adenosine deaminase activity was measured by negative change in ADO concentration per min×100.

[3] = Kinetic assessment of adenosine deaminase activity (ammonia assay, Michaelis-Menten); assay type: biochemical; conditions: for Km / Vmax / kcat: [E] = 8.5 nM; for kcat: kcat=Vmax/0.0085/60; for kinetics properties compared to WT: pH 7.6 and pH 6.5
Outline: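 Coupled ammonia assay: rHuADA2 WT or variants (1 μg/mL, 17 nM in 2× mix) with adenosine 20 μM–20 mM, α-ketoglutarate, NADPH and GDH, at pH 7.6 or pH 6.5 (PIPES), room temperature. Michaelis-Menten fit gave Km, Vmax, kcat, kcat/Km.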

[4] = Heparin binding ELISA (heparin coated microtiter plate); conditions: single and S265N combination variants (Table 34)
Experimental: A 96-well plate was coated with 100 μL of 200 μg/mL heparin sodium salt (Calibochem, EMD Milipore, Billerica, Mass.; Cat. No. 375095) in Na2CO3 buffer (pH 9.6), overnight at 4° C. The wells were blocked with 5% milk in PBS, and washed 6 times with PBS. 3 μM of select rHuADA2 variants (see Table 20), WT rHuADA2 (positive control) and WT rHuADA1 (negative control) were added to the wells individually and incubated for 2 hours at room temperature, followed by washing 6 times with PBS. 100 μL of 1:1000 diluted horseradish peroxidase (HRP)-anti-FLAG antibody (Abcam, Cambridge, UK; Cat. No. Ab1238) was added to the wells to detect binding and incubated at room temperature for 1 hour. The ELISA reactions were developed by adding the 3,3′,5,5′-Tetramethylbenzidine (TMB) substrate solution (Pierce, Thermo Fisher Scientific, Rockford, Ill.) according the manufacturer's instructions and reading the optical density at 450 nm (OD450) on a plate reader.

Heparin Binding ELISA Average OD450 [4]	Molecule	Tm, melting temperature by DSF [1] [°C]	Adenosine deaminase activity Δ [ADO]/min × (−100) ([2]; pH 5.5)	Adenosine deaminase activity Δ [ADO]/min × (−100) ([2]; pH 6)	Adenosine deaminase activity Δ [ADO]/min × (−100) ([2]; pH 6.5)	Adenosine deaminase activity Δ [ADO]/min × (−100) ([2]; pH 6.75)	Adenosine deaminase activity Δ [ADO]/min × (−100) ([2]; pH 7)	Adenosine deaminase activity Δ [ADO]/min × (−100) ([2]; pH 7.25)	Adenosine deaminase activity Δ [ADO]/min × (−100) ([2]; pH 7.4)	Adenosine deaminase activity Δ [ADO]/min × (−100) ([2]; pH 7.75)	Adenosine deaminase activity Δ [ADO]/min × (−100) ([2]; pH 8)	Km ([3]; pH 6.5) [µM]	Vmax ([3]; pH 6.5) [µM/min]	kcat ([3]; pH 6.5) [s⁻¹]	Km ([3]; pH 7.6) [µM]	Vmax ([3]; pH 7.6) [µM/min]	kcat ([3]; pH 7.6) [s⁻¹]	kinetics properties compared to WT [3]
0.6	S265N/K374E: ADA2 combination variant SEQ ID NO:60 (protein, human ADA2 S262N/K371E, mature numbering) IDETRAHLLLKEKMMRLGGRLVLNTKEELANERLMTLKIAEMKEAMRTLIFPPSMHFFQAKHLIERSQVFNILRMMPKGAALHLHDIGIVTMDWLVRNVTYRPHCHICFTPRGIMQFRFAHPTPRPSEKCSKWILLEDYRKRVQNVTEFDDSLLRNFTLVTQHPEVIYTNQNVVWSKFETIFFTISGLIHYAPVFRDYVFRSMQEFYEDNVLYMEIRARLLPVYELSGEHHDEEWSVKTYQEVAQKFVETHPEFIGIKIIYNDHRSKDVAVIAESIRMAMGLRIKFPTVVAGFDLVGHEDTGHSLHDYKEALMIPAKDGVKLPYFFHAGETDWQGTSIDRNILDALMLNTTRIGHGFALSKHPAVRTYSWEKDIPIEVCPISNQVLKLVSDLRNHPVATLMATGHPMVISSDDPAMFGAKGLSYDFYEVFMGIGGMKADLRTLKQLAMNSIKYSTLLESEKNTFMEIWKKRWDKFIADVATK	61.3	31.84	44.31	50.23	54.55	59.68	60.07	57.15	28.28	1.77	1410	57.13	112.02	2540	87.44	171.45	greatest improvements in catalytic activity at pH 6.5
0.93	S265N/R23E/K374E: ADA2 combination variant SEQ ID NO:63 (protein, human ADA2 S262N/R20E/K371E, mature numbering) IDETRAHLLLKEKMMRLGGELVLNTKEELANERLMTLKIAEMKEAMRTLIFPPSMHFFQAKHLIERSQVFNILRMMPKGAALHLHDIGIVTMDWLVRNVTYRPHCHICFTPRGIMQFRFAHPTPRPSEKCSKWILLEDYRKRVQNVTEFDDSLLRNFTLVTQHPEVIYTNQNVVWSKFETIFFTISGLIHYAPVFRDYVFRSMQEFYEDNVLYMEIRARLLPVYELSGEHHDEEWSVKTYQEVAQKFVETHPEFIGIKIIYNDHRSKDVAVIAESIRMAMGLRIKFPTVVAGFDLVGHEDTGHSLHDYKEALMIPAKDGVKLPYFFHAGETDWQGTSIDRNILDALMLNTTRIGHGFALSKHPAVRTYSWEKDIPIEVCPISNQVLKLVSDLRNHPVATLMATGHPMVISSDDPAMFGAKGLSYDFYEVFMGIGGMKADLRTLKQLAMNSIKYSTLLESEKNTFMEIWKKRWDKFIADVATK	60.4	37.94	52.70	66.08	67.95	74.68	77.81	67.77	35.97	2.04	1290	63.74	124.98	2870	82.38	161.53	greatest improvements in catalytic activity at pH 6.5
1.03	S265N/R23E: ADA2 combination variant SEQ ID NO:61 (protein, human ADA2 S262N/R20E, mature numbering) IDETRAHLLLKEKMMRLGGELVLNTKEELANERLMTLKIAEMKEAMRTLIFPPSMHFFQAKHLIERSQVFNILRMMPKGAALHLHDIGIVTMDWLVRNVTYRPHCHICFTPRGIMQFRFAHPTPRPSEKCSKWILLEDYRKRVQNVTEFDDSLLRNFTLVTQHPEVIYTNQNVVWSKFETIFFTISGLIHYAPVFRDYVFRSMQEFYEDNVLYMEIRARLLPVYELSGEHHDEEWSVKTYQEVAQKFVETHPEFIGIKIIYNDHRSKDVAVIAESIRMAMGLRIKFPTVVAGFDLVGHEDTGHSLHDYKEALMIPAKDGVKLPYFFHAGETDWQGTSIDRNILDALMLNTTRIGHGFALSKHPAVRTYSWKKDIPIEVCPISNQVLKLVSDLRNHPVATLMATGHPMVISSDDPAMFGAKGLSYDFYEVFMGIGGMKADLRTLKQLAMNSIKYSTLLESEKNTFMEIWKKRWDKFIADVATK	59.6	27.34	38.26	45.58	48.49	51.90	56.12	50.44	24.42	4.63	1430	53.25	104.41	2900	63.13	123.78	greatest improvements in catalytic activity at pH 6.5
